Laboratory results taken from patent publication US20020102268A1.

Target: uncleaved bovine spleen PARP (poly(ADP-ribose) polymerase) (UniProt P18493)
Chain of UniProt P18493 (P18493 2-1016): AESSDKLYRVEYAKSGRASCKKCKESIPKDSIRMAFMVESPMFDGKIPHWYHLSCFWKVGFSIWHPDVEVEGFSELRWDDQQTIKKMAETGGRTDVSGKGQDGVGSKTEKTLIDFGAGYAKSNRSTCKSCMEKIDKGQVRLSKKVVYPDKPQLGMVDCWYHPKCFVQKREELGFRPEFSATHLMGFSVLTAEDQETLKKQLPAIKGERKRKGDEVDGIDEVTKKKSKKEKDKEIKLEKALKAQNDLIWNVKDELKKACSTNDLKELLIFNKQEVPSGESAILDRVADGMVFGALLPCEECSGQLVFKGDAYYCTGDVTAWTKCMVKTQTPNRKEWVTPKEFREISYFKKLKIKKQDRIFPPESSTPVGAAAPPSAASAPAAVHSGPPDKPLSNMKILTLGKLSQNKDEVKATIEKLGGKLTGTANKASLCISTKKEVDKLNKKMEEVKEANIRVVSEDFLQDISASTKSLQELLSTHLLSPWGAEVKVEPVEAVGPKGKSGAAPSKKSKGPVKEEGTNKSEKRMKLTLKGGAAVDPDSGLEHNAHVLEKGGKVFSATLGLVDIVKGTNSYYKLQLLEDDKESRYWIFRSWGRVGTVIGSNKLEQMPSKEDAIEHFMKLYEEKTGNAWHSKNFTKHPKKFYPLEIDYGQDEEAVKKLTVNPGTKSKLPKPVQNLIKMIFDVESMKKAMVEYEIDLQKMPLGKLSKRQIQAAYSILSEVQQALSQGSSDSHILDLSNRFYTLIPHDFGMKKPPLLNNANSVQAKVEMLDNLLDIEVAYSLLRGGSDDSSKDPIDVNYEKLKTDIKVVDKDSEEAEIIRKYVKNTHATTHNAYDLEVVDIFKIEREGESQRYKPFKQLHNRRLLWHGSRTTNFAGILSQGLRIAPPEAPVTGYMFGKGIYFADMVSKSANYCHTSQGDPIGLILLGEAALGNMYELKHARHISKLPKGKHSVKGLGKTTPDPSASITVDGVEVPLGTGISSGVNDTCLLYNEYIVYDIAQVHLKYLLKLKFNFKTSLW

Question: For recombinant CPP32 (caspase 3), which “cleavage of PARP, seen on Western blot” value is on record?
Answer: two bands corresponding to uncleaved and cleaved PARP were visualized in the cleaved sample
